According to patent US20200316124A1:

Molecular target: SCNN1A, Sodium Channel Epithelial 1 Alpha Subunit (Isoform 1, UniProt P37088-1) (human) (UniProt P37088)
Assay: cell-based or functional assay

Sequence of SCNN1A, Sodium Channel Epithelial 1 Alpha Subunit (P37088 whole entry, canonical isoform, one chain of several): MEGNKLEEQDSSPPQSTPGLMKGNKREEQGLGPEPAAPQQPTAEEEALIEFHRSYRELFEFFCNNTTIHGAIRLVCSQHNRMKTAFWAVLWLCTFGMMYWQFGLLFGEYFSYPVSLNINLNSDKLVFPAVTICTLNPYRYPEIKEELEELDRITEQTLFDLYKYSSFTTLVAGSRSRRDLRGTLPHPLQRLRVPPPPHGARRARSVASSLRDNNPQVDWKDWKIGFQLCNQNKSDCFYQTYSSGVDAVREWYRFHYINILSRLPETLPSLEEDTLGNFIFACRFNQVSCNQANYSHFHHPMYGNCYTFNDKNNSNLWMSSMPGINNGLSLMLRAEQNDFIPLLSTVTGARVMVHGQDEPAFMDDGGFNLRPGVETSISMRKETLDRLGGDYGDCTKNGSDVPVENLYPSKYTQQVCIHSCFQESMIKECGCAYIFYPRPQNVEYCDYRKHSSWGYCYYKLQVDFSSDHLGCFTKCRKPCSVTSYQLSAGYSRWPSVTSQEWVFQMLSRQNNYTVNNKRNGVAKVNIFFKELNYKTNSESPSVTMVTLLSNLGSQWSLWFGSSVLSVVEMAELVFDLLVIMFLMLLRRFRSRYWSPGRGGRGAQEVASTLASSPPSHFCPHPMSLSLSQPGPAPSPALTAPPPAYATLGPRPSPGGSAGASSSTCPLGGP

SW.3G1 T-cell receptor (γ3δ1 TCR, TRGV3/TRDV1) of T-cell clone SW.3G1
killing in long term killing assay, LCL.174 wildtype cells: 100% | lysis in long term killing assay, LCL.174 SCNN1A knockout cell lines (gRNA-1 or gRNA-2): < 5%
